Test results from US20240132591A1.
Read-outs that look alike come from different tables or passages of the source.

Tests used:
Assay in all cases: ELISA on insulin-coated plate, 100 nM
Insulin [1] = target: Insulin (UniProt P01308)
Insulin [2] = target: Insulin (UniProt P01308); remark: listed apart in the source
Insulin [3] = target: Insulin (UniProt P01308); remark: listed apart in the source
Insulin [4] = target: Insulin (UniProt P01308); remark: listed apart in the source
Insulin [5] = target: Insulin (UniProt P01308); remark: listed apart in the source
Insulin [6] = target: Insulin (UniProt P01308); remark: listed apart in the source

Insulin polyreactivity score (Insulin [1]) | Insulin polyreactivity score (Insulin [2]) | Insulin polyreactivity score (Insulin [3]) | Insulin polyreactivity score (Insulin [4]) | Insulin polyreactivity score (Insulin [5]) | Insulin polyreactivity score (Insulin [6]) | Substance
1.25 | 3.43 | 1 | 1.09 | 1.01 |  | Elotuzumab (antibody)
21.3 | 69.2 | 1.52 | 7.93 | 7.87 | 69.2 | Lenzilumab (antibody)
